This assay has as its target T1, CapRel^SJ46, purified full-length (Salmonella temperate phage SJ46).
T1 construct: also called purified CapRel^SJ46; source: E. coli BL21 (DE3), pET24d-His10-SUMO-capRel^SJ46, purified (nickel resin, SEC, tag removed with Ulp1); not shown: His10, N-terminal, cleaved; SUMO, N-terminal, cleaved
Nature of the assay: ITC; CapRel^SJ46 (or variant) at 150 μM in the syringe titrated into Gp57 (or variant) at 10 μM in the cell; 25 °C; 50 mM HEPES pH 7.5, 500 mM KCl, 500 mM NaCl, 150 mM imidazole, 10 mM MgCl2, 1 mM TCEP, 0.002% mellitic acid. To be noted: both partners purified. In general terms: ITC needs no label: the signal is the heat of the interaction.

B1: Gp57, purified (natural protein)
chain: MAKKYDELDATIVANHLQIQGVKTDASDMGIWTAQELHKIRSTAYEKEYPAGSALRVFPVTNELSDTDKTFEYQTFDKVGYAKIIADYTDDLPTVDALMTSEFGKVFRLGNAFLISIDEIKAGQRTGKSLSTRKANAAQNAHDQLINFLVFKGSKPHKIVSVFDHPNLTKIVSKGWMSQDGNTKFPDVASDELEAAIETIEEVTKGQHRATNILIPPSMRKVLTVRMENTTESYLEYFQKQNGGITIDSIAELEDIDGKGTKGCLVYEKDPMNMSIEIPEAFNMLPAQPKDLHFKVPCTSKCTGLTIYRPFTMVLITGLKKSV
With B1, binding was characterised by a dissociation constant (Kd) of 350 nM.

The record behind these values is publication PMC9712102, “Direct activation of a bacterial innate immune system by a viral capsid protein” (Nature, 2022).
